Data from patent US20180100026A1 (CALIFORNIA INSTITUTE FOR BIOMEDICAL RESEARCH, published 2018).
Changes are numbered by the printed parent chain.

B1: anti-CD33 hP67.6 AB-FITC switch (light chain G72 and heavy chain P75) (Fab, V domains shown)
VH: EVQLVQSGAEVKKPGSSVKVSCKASGYTITDSNIHWVRQAPGQSLEWIGYIYPYNGGTDYNQKFKNRATLTVDNXTNTAYMELSSLRSEDTAFYYCVNGNPWLAYWGQGTLVTVSS
VL: DIQLTQSPSTLSASVGDRVTITCRASESLDNYGIRFLTWFQQKPGKAPKLLMYAASNQGSGVPSRFSGSGSXTEFTLTISSLQPDDFATYYCQQTKEVPWSFGQGTKVEVKR
modifications: position 75 = pAzF conjugated with a cyclooctyne-PEG-FITC linker; position 72 = pAzF conjugated with a cyclooctyne-PEG-FITC linker
B2: random anti-CD19 (FMC63) Fab FITC conjugate (Fab, V domains shown)
VH: EVKLQESGPGLVAPSQSLSVTCTVSGVSLPDYGVSWIRQPPRKGLEWLGVIWGSETTYYNSALKSRLTIIKDNSKSQVFLKMNSLQTDDTAIYYCAKHYYYGGSYAMDYWGQGTSVTVSS
VL: DIQMTQTTSSLSASLGDRVTISCRASQDISKYLNWYQQKPDGTVKLLIYHTSRLHSGVPSRFSGSGSGTDYSLTISNLEQEDIATYFCQQGNTLPYTFGGGTKLEIKR
modifications: FITC-PEG4 by NHS chemistry at the N-terminal amino group (~58% of the conjugates); FITC-PEG4 by NHS chemistry at lysines, largely K31 (~20%) and K141 (~68.4%); paragraph 560 prints positions 31 and 145
notes: Heterogeneous mixture, average FITC to antibody ratio of 2; also called random conjugate; Random (DAR 2)
B3: anti-CD19 (FMC63) Fab A-FITC (light chain G68) (Fab, V domains shown)
VH: B2 VH
VL: B2 VL
modifications: position 68 = pAzF conjugated with BCN-PEG4-FITC
notes: Monovalent, proximal site; also called LG68
B4: anti-CD19 (FMC63) Fab B-FITC (heavy chain S74) (Fab, V domains shown)
VH: B2 VH
VL: B2 VL
modifications: position 74 = pAzF conjugated with BCN-PEG4-FITC
notes: Monovalent, proximal site; also called HS74
B5: anti-CD19 (FMC63) Fab AB-FITC (light chain G68 and heavy chain S74) (Fab, V domains shown)
VH: B2 VH
VL: B2 VL
modifications: position 74 = pAzF conjugated with BCN-PEG4-FITC; position 68 = pAzF conjugated with BCN-PEG4-FITC
notes: Bivalent, proximal sites; also called anti-CD19 AB-FITC; LG68/HS74
B6: anti-CD19 (FMC63) Fab C-FITC (light chain T109) (Fab, V domains shown)
VH: B2 VH
VL: B2 VL
modifications: position 109 of the whole light chain = pAzF conjugated with BCN-PEG4-FITC
notes: Monovalent, medial site; also called LT109
B7: anti-CD19 (FMC63) Fab D-FITC (heavy chain A121) (Fab, V domains shown)
VH: B2 VH
VL: B2 VL
modifications: position 121 of the whole heavy chain = pAzF conjugated with BCN-PEG4-FITC
notes: Monovalent, medial site; also called HA121
B8: anti-CD19 (FMC63) Fab E-FITC (light chain S202) (Fab, V domains shown)
VH: B2 VH
VL: B2 VL
modifications: position 202 of the whole light chain = pAzF conjugated with BCN-PEG4-FITC
notes: Monovalent, distal site; also called LS202
B9: anti-CD19 (FMC63) Fab F-FITC (heavy chain K136) (Fab, V domains shown)
VH: B2 VH
VL: B2 VL
modifications: position 136 of the whole heavy chain = pAzF conjugated with BCN-PEG4-FITC
notes: Monovalent, distal site; also called HK136
B10: anti-CD19 (FMC63) Fab EF-FITC (light chain S202 and heavy chain K136) (Fab, V domains shown)
VH: B2 VH
VL: B2 VL
modifications: position 136 of the whole heavy chain = pAzF conjugated with BCN-PEG4-FITC; position 202 of the whole light chain = pAzF conjugated with BCN-PEG4-FITC
notes: Bivalent, distal sites; also called LS202/HK136
B11: anti-CD33 Fab (clone hP67.6) (Fab, V domains shown)
VH: B1 VH with X75P
VL: B1 VL with X72G
B12: anti-CD33 Fab (clone hM195) (Fab, V domains shown)
VH: QVQLVQSGAEVKKPGSSVKVSCKASGYTFTDYNMHWVRQAPGQGLEWIGYIYPYNGGTGYNQKFKSKATITADESTNTAYMELSSLRSEDTAVYYCARGRPAMDYWGQGTLVTVSS
VL: DIQMTQSPSSLSASVGDRVTITCRASESVDNYGISFMNWFQQKPGKAPKLLIYAASNQGSGVPSRFSGSGSGTDFTLNISSLQPDDFATYYCQQSKEVPWTFGQGTKVEIKR

Key:
CD33 on MOLM14 cells [1] = target: T1, CD33 on MOLM14 cells (human, UniProt P20138 18-364); assay: cell-based or functional assay
T1 sequence (P20138 18-364): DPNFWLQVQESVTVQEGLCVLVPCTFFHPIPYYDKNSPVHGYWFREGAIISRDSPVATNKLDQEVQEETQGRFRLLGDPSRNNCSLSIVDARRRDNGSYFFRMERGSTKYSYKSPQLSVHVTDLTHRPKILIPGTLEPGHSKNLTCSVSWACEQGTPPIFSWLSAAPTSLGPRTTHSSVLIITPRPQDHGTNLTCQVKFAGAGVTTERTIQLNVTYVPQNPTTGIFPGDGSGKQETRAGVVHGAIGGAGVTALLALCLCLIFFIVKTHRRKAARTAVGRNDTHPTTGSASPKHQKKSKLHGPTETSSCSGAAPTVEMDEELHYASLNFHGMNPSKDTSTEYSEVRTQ

[2] = target: T2, CAR-FITC (CD8 hinge), anti-FITC (FITC-E2 scFv) chimeric antigen receptor on T cells; assay: flow cytometry on anti-FITC CAR T cells, Alexa Fluor 647 anti-human IgG or anti-human kappa secondary antibody, MFI against concentration
T2 construct: FITC-E2 scFv, CD8 hinge and transmembrane region, 41BB and CD3 zeta; also called Anti FITC CAR-EC with CD8 hinge; anti-FITC CAR
T2 sequence (chain, as listed by the source mutant limits assumed): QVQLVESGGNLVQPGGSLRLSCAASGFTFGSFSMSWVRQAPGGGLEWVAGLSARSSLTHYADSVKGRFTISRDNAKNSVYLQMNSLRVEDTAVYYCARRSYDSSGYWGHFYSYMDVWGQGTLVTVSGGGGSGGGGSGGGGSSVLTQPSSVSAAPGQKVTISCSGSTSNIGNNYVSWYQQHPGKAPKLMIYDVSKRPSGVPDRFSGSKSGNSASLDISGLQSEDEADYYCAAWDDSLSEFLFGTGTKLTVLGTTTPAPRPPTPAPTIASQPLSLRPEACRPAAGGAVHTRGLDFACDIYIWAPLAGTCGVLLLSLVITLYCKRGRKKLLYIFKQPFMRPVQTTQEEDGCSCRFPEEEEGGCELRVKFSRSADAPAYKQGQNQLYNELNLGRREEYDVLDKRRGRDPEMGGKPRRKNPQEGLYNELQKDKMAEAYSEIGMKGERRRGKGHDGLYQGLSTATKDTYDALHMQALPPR
Procedure: (§1) Cells were incubated with indicated switch antibodies at 4° C. for 30-60 min and washed twice with staining buffer (1% BSA in PBS). […] After several washes, samples were acquired on a BD LSR II or BD Accuri C6 and analyzed using FlowJo 7.6.2 software.
(§2) Briefly, cells were incubated with indicated switch antibodies at 4° C. for 30-60 min and washed twice with staining buffer (1% BSA in PBS). […] After several washes, samples were acquired on a BD LSR II or BD Accuri C6 and analyzed using FlowJo 7.6.2 software.

[3] = target: T2, CAR-FITC (CD8 hinge), anti-FITC …; assay: flow cytometry on anti-FITC CAR-T cells
Procedure: as §1, §2

CD33 on MOLM14 cells [4] = target: T1, CD33 on MOLM14 cells; assay: flow cytometry on MOLM-14 (CD33+) cells, MFI against Fab concentration, secondary antibody alone subtracted
Procedure: Binding capacity is measured through MFI. MFI of secondary antibody alone was subtracted to account for background and non-specific staining.

Row | Binder | EC50 [2] [nM] | further results
1 | B1 |  | EC50 of cytotoxicity of anti-FITC CAR-T cells against MOLM14 cells (CD33 on MOLM14 cells [1]): 0.0065 nM; efficacy in MOLM14 against the optimized anti-CD33 hM195 CD-FITC switch (CD33 on MOLM14 cells [1]): ~3 fold
2 | B2 | 0.0029 | 
3 | B3 | 0.0094 | 
4 | B4 | 0.0091 | 
5 | B5 | 0.0034 | 
6 | B6 | 0.0064 | 
7 | B7 | 0.0095 | 
8 | B8 | 0.007 | 
9 | B9 | 0.0092 | 
10 | B10 | 0.0029 | EC50 [3]: ~3 nM
11 | B11 |  | EC50 (CD33 on MOLM14 cells [4]): 3.96 nM
12 | B12 |  | EC50 (CD33 on MOLM14 cells [4]): 1800 nM
